In paper PMC10920655, “Identification and characterization of CIM-1, a carbapenemase that adds to the family of resistance factors against last resort antibiotics” (Communications Biology, 2024):
In brackets after ≈: the same amount, converted by molar mass.

Legend:
[1] = system: T1, E. coli C41(DE3) with pET41a(+); assay: microbe, parasite or virus in culture; design: species or system C. indologenes 3362; E. coli C41(DE3); Broth microdilution MIC, ISO 20776-1/EUCAST, cation-adjusted Mueller Hinton broth, after IPTG induction; settings: Escherichia coli; empty vector pET41a(+), IPTG induced
T1 construct: C41(DE3) empty vector pET41a(+), control
Protocol: (§1) The in vitro minimum inhibitory concentration (MIC) of β-lactams including penicillins, cephalosporins, and carbapenems in C. indologenes 3362 and E. coli C41(DE3) carrying different constructs were determined using the broth microdilution assay according to the International Standard ISO 20776-1 as recommended by EUCAST (the European Committee on Antimicrobial Susceptibility Testing). Briefly, bacterial cultures were grown aerobically at 37 °C to an OD600 0.4–0.6 in the presence of 25 μg/mL kanamycin, when necessary, before 1 mM IPTG (isopropyl-β-d-thiogalactopyranoside) was added. The induction was allowed for 2 h at 37 °C before the bacterial culture was diluted to 4 × 10^6 CFU/mL, and the microbroth dilution assays were performed. Cation-adjusted Mueller Hinton (CAMH) broth was used. All assays were repeated at least four times on four different days with different batches of cells.

[2] = system: T2, C. indologenes #3362; assay: microbe, parasite or virus in culture; design: species or system C. indologenes 3362; E. coli C41(DE3); Broth microdilution MIC, ISO 20776-1/EUCAST, cation-adjusted Mueller Hinton broth, after IPTG induction; settings: Chryseobacterium indologenes; native isolate carrying IND-2 and CIM-1
T2 construct: 3362
Protocol: as §1

[3] = molecular target: T3, IND-2ΔSig (Chryseobacterium indologenes, UniProt Q9ETN2); assay: steady-state hydrolysis, UV absorbance […] nm, plate reader; type: biochemical; settings: read-out: Km (μM) / IND-2ΔSig; 50 mM HEPES pH 7.0, 10 μM ZnSO4, 25 ± 2 °C, 100 nM enzyme
T3 construct: gene blaIND-2b

[4] = molecular target: T3, IND-2ΔSig; assay: steady-state hydrolysis, UV absorbance, plate reader; settings: read-out: Km (μM) / IND-2ΔSig; 50 mM HEPES pH 7.0, 10 μM ZnSO4, 25 ± 2 °C, 100 nM enzyme
[5] = molecular target: T3, IND-2ΔSig; assay: steady-state hydrolysis, UV absorbance […] or […] nm, plate reader; settings: read-out: Km (μM) / IND-2ΔSig; 50 mM HEPES pH 7.0, 10 μM ZnSO4, 25 ± 2 °C, 100 nM enzyme
[6] = molecular target: T4, NDM-4ΔSig (Klebsiella pneumoniae, UniProt C7C422, M154L); assay: steady-state hydrolysis, absorbance […] nm, plate reader; type: biochemical; settings: read-out: Km (μM) / NDM-4ΔSig; 50 mM HEPES pH 7.0, 10 μM ZnSO4, 25 ± 2 °C, 100 nM enzyme
T4 construct: gene blaNDM-1

[7] = system: C[C@@H](O)[C@H]1C(=O)N2C(C(=O)O)=C(SCCN=CN)C[C@H]12; assay: purified protein; settings: 50 mM HEPES pH 7.0, 10 μM ZnSO4, 25 ± 2 °C, 100 nM enzyme, 25.0 °C
[8] = system: C[C@@H](O)[C@H]1C(=O)N2C(C(=O)O)=C(S[C@@H]3CN[C@H](CNS(N)(=O)=O)C3)[C@H](C)[C@H]12; assay: purified protein; settings: 50 mM HEPES pH 7.0, 10 μM ZnSO4, 25 ± 2 °C, 100 nM enzyme, 25.0 °C
Excerpt: steady-state hydrolysis, UV absorbance, plate reader on CIM-1ΔSig

[9] = system: CC(C)(O/N=C(\C(=O)N[C@@H]1C(=O)N2C(C(=O)[O-])=C(C[n+]3ccccc3)CS[C@H]12)c1csc(N)n1)C(=O)O; assay: purified protein; settings: 50 mM HEPES pH 7.0, 10 μM ZnSO4, 25 ± 2 °C, 100 nM enzyme, 25.0 °C
[10] = system: C[C@@H](O)[C@H]1C(=O)N2C(C(=O)O)=C(S[C@@H]3CN[C@H](C(=O)Nc4cccc(C(=O)O)c4)C3)[C@H](C)[C@H]12; assay: purified protein; settings: 50 mM HEPES pH 7.0, 10 μM ZnSO4, 25 ± 2 °C, 100 nM enzyme, 25.0 °C
[11] = system: C[C@@H](O)[C@H]1C(=O)N2C(C(=O)O)=C(S[C@@H]3CN[C@H](C(=O)N(C)C)C3)[C@H](C)[C@H]12; assay: purified protein; settings: 50 mM HEPES pH 7.0, 10 μM ZnSO4, 25 ± 2 °C, 100 nM enzyme, 25.0 °C
[12] = system: CO/N=C(\C(=O)N[C@@H]1C(=O)N2C(C(=O)[O-])=C(C[N+]3(C)CCCC3)CS[C@H]12)c1csc(N)n1; assay: purified protein; settings: 50 mM HEPES pH 7.0, 10 μM ZnSO4, 25 ± 2 °C, 100 nM enzyme, 25.0 °C
[13] = system: O=C(Cc1cccs1)N[C@@H]1C(=O)N2C(C(=O)O)=C(/C=C/c3ccc([N+](=O)[O-])cc3[N+](=O)[O-])CS[C@H]12; assay: purified protein; settings: 50 mM HEPES pH 7.0, 10 μM ZnSO4, 25 ± 2 °C, 100 nM enzyme, 25.0 °C
[14] = system: C[C@@H](O)[C@H]1C(=O)N2C(C(=O)O)=C(SCCN=CN)C[C@H]12; assay: purified protein; type: biochemical, Klebsiella pneumoniae; settings: 50 mM HEPES pH 7.0, 10 μM ZnSO4, 25 ± 2 °C, 100 nM enzyme, 25.0 °C
[15] = system: CC(C)(O/N=C(\C(=O)N[C@@H]1C(=O)N2C(C(=O)[O-])=C(C[n+]3ccccc3)CS[C@H]12)c1csc(N)n1)C(=O)O; assay: purified protein; type: biochemical, Klebsiella pneumoniae; settings: 50 mM HEPES pH 7.0, 10 μM ZnSO4, 25 ± 2 °C, 100 nM enzyme, 25.0 °C
[16] = system: C[C@@H](O)[C@H]1C(=O)N2C(C(=O)O)=C(S[C@@H]3CN[C@H](C(=O)N(C)C)C3)[C@H](C)[C@H]12; assay: purified protein; type: biochemical, Klebsiella pneumoniae; settings: 50 mM HEPES pH 7.0, 10 μM ZnSO4, 25 ± 2 °C, 100 nM enzyme, 25.0 °C
[17] = system: CO/N=C(\C(=O)N[C@@H]1C(=O)N2C(C(=O)[O-])=C(C[N+]3(C)CCCC3)CS[C@H]12)c1csc(N)n1; assay: purified protein; type: biochemical, Klebsiella pneumoniae; settings: 50 mM HEPES pH 7.0, 10 μM ZnSO4, 25 ± 2 °C, 100 nM enzyme, 25.0 °C
[18] = system: C[C@@H](O)[C@H]1C(=O)N2C(C(=O)O)=C(S[C@@H]3CN[C@H](CNS(N)(=O)=O)C3)[C@H](C)[C@H]12; assay: steady-state hydrolysis, UV absorbance, plate reader; type: biochemical, Klebsiella pneumoniae; settings: 50 mM HEPES pH 7.0, 10 μM ZnSO4, 25 ± 2 °C, 100 nM enzyme, 25.0 °C
Excerpt: (§2) steady-state hydrolysis, UV absorbance, plate reader on NDM-4ΔSig

[19] = system: C[C@@H](O)[C@H]1C(=O)N2C(C(=O)O)=C(S[C@@H]3CN[C@H](C(=O)Nc4cccc(C(=O)O)c4)C3)[C@H](C)[C@H]12; assay: as above; type: biochemical, Klebsiella pneumoniae; settings: 50 mM HEPES pH 7.0, 10 μM ZnSO4, 25 ± 2 °C, 100 nM enzyme, 25.0 °C
Excerpt: as §2

T3 sequence (Q9ETN2 entry or part of it, stated change not applied): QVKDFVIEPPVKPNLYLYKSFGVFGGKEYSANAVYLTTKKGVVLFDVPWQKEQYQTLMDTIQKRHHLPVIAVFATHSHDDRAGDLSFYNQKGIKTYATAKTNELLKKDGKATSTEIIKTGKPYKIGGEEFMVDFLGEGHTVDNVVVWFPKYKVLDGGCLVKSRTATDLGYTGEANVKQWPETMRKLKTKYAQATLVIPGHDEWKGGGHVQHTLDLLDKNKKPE
T4 sequence (C7C422 26-270 M154L): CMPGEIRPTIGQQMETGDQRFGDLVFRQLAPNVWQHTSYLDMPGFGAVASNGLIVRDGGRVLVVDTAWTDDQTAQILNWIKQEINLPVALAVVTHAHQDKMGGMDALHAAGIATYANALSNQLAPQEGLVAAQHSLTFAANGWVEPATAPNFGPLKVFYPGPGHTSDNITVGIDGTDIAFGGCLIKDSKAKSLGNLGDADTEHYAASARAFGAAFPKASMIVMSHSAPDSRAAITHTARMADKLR

## Cc1nnc(SCC2=C(C(=O)O)N3C(=O)[C@@H](NC(=O)Cn4cnnn4)[C@H]3SC2)s1 [*Cefazolin (1st)]
[1]
  MIC: 2 µg/mL (≈ 4.4 µM)
[2]
  MIC: 256 µg/mL (≈ 563 µM)

## CO[C@@]1(NC(=O)Cc2cccs2)C(=O)N2C(C(=O)O)=C(COC(N)=O)CS[C@@H]21 [*Cefoxitin (2nd)]
[1]
  MIC: 0.5 µg/mL (≈ 1.17 µM)
[2]
  MIC: 32 µg/mL (≈ 74.9 µM)

## CC1(C)S[C@@H]2[C@H](NC(=O)[C@H](N)c3ccccc3)C(=O)N2[C@H]1C(=O)O [Ampicillin]
[1]
  MIC: 4 µg/mL (≈ 11.4 µM)
[2]
  MIC: 512 µg/mL (≈ 1470 µM)

## C[C@H]1[C@H](NC(=O)/C(=N\OC(C)(C)C(=O)O)c2csc(N)n2)C(=O)N1S(=O)(=O)O [Aztreonam]
[1]
  MIC: < 0.02 µg/mL
[2]
  MIC: > 512 µg/mL

## CO/N=C(\C(=O)N[C@@H]1C(=O)N2C(C(=O)[O-])=C(C[N+]3(C)CCCC3)CS[C@H]12)c1csc(N)n1 [Cefepime]
[1]
  MIC: 0.031 µg/mL (≈ 0.0645 µM)
[2]
  MIC: 2 µg/mL (≈ 4.16 µM)

## CC(C)(O/N=C(\C(=O)N[C@@H]1C(=O)N2C(C(=O)[O-])=C(C[n+]3ccccc3)CS[C@H]12)c1csc(N)n1)C(=O)O [Ceftazidime]
[3]
  Km: > 1000 µM
[1]
  MIC: 0.125 µg/mL (≈ 0.229 µM)
[2]
  MIC: 16 µg/mL (≈ 29.3 µM)

## C[C@@H](O)[C@H]1C(=O)N2C(C(=O)O)=C(S[C@@H]3CN[C@H](CNS(N)(=O)=O)C3)[C@H](C)[C@H]12 [Doripenem]
[4]
  Km: > 1000 µM
[1]
  MIC: 0.063 µg/mL (≈ 0.15 µM)
[2]
  MIC: 128 µg/mL (≈ 304 µM)

## C[C@@H](O)[C@H]1C(=O)N2C(C(=O)O)=C(S[C@@H]3CN[C@H](C(=O)Nc4cccc(C(=O)O)c4)C3)[C@H](C)[C@H]12 [Ertapenem]
[1]
  MIC: 0.016 µg/mL (≈ 0.0336 µM)
[2]
  MIC: 64 µg/mL (≈ 135 µM)

## C[C@@H](O)[C@H]1C(=O)N2C(C(=O)O)=C(SCCN=CN)C[C@H]12 [Imipenem]
[1]
  MIC: 0.5 µg/mL (≈ 1.67 µM)
[2]
  MIC: 128 µg/mL (≈ 428 µM)

## C[C@@H](O)[C@H]1C(=O)N2C(C(=O)O)=C(S[C@@H]3CN[C@H](C(=O)N(C)C)C3)[C@H](C)[C@H]12 [Meropenem]
[1]
  MIC: 0.031 µg/mL (≈ 0.0808 µM)
[2]
  MIC: 128 µg/mL (≈ 334 µM)
[5]
  Km: > 1000 µM

## O=C(Cc1cccs1)N[C@@H]1C(=O)N2C(C(=O)O)=C(/C=C/c3ccc([N+](=O)[O-])cc3[N+](=O)[O-])CS[C@H]12 [Nitrocefin]
[6]
  Km: 11 ± 1.8 µM

## CIM-1ΔSig (Chryseobacterium indologenes)
[7]
  Km: 94 ± 7 µM
  kcat: 8.5 s⁻¹
  kcat/Km: 90000 M⁻¹ s⁻¹
[8]
  Km: 175 ± 24 µM
  kcat: 21 s⁻¹
  kcat/Km: 120000 M⁻¹ s⁻¹
[9]
  Km: 324 ± 42 µM
  kcat: 30 s⁻¹
  kcat/Km: 93000 M⁻¹ s⁻¹
[10]
  Km: 91 ± 11 µM
  kcat: 9.2 s⁻¹
  kcat/Km: 100000 M⁻¹ s⁻¹
[11]
  Km: 143 ± 19 µM
  kcat: 15 s⁻¹
  kcat/Km: 100000 M⁻¹ s⁻¹
[12]
  Km: 538 ± 56 µM
  kcat: 15.3 s⁻¹
  kcat/Km: 28000 M⁻¹ s⁻¹
[13]
  Km: 33 ± 6 µM
  kcat: 2.8 s⁻¹
  kcat/Km: 85000 M⁻¹ s⁻¹

## IND-2ΔSig (Chryseobacterium indologenes)
[7]
  Km: 728 ± 102 µM
  kcat: 208 s⁻¹
  kcat/Km: 290000 M⁻¹ s⁻¹
[10]
  Km: 1069 ± 105 µM
  kcat: 127 s⁻¹
  kcat/Km: 120000 M⁻¹ s⁻¹
[13]
  Km: 113 ± 6.9 µM
  kcat: 78 s⁻¹
  kcat/Km: 680000 M⁻¹ s⁻¹

## NDM-4ΔSig (Klebsiella pneumoniae; M154L)
[14]
  Km: 151 ± 22 µM
  kcat: 31 s⁻¹
  kcat/Km: 210000 M⁻¹ s⁻¹
[15]
  Km: 93 ± 14 µM
  kcat: 6.3 s⁻¹
  kcat/Km: 68000 M⁻¹ s⁻¹
[16]
  Km: 163 ± 22 µM
  kcat: 25 s⁻¹
  kcat/Km: 150000 M⁻¹ s⁻¹
[17]
  Km: 136 ± 16 µM
  kcat: 5.4 s⁻¹
  kcat/Km: 40000 M⁻¹ s⁻¹
[18]
  Km: 253 ± 19 µM
  kcat: 51 s⁻¹
  kcat/Km: 200000 M⁻¹ s⁻¹
[19]
  Km: 159 ± 22 µM
  kcat: 17 s⁻¹
  kcat/Km: 110000 M⁻¹ s⁻¹
